Test results from US5866538A, “Insulin preparations containing NaCl” (Novo Nordisk A/S, priority 1996, dated 1999).

Key:
[1] = Stability of Asp^B28 human insulin solutions with varying Zn, NaCl and pH (Example I); assay type: physicochemical; conditions: 4 weeks at 37° C.
Method: Solutions containing 100 U/ml Asp^B28 human insulin, 2.6 mg/ml phenol, 16 mg/ml glycerol and varying amounts of Zn and sodium chloride were prepared. The pH was varied in the range of 7.2 to 7.5.

[2] = Stability tests of Asp^B28 human insulin preparations in Penfill cartridges, varying phosphate and NaCl (Example IV); assay type: physicochemical; conditions: 6 weeks at 37° C., 19.6 μg Zn/100 U insulin, pH 7.4
Method: 375.7 mg Asp^B28 human insulin was dissolved in water by adding 1.6 ml 0.2N HCl and 49 μl zinc chloride solution (40 mg Zn/ml). 20 g of a solution containing 80 mg/g glycerol, 7.50 mg/g phenol and 8.60 mg/g m-cresol was added to the solution while mixing. Varying amounts (3.71 g to 6.71 g) of a solution containing 24.0 mg/g disodium phosphate dihydrate and 11 μl/g 2N sodium hydroxide was added while mixing, finally varying amounts (0 g to 3.65 g) of a solution containing 40 mg/g sodium chloride were added while mixing so as to obtain a sodium chloride concentration mentioned in table 6. pH was adjusted to pH 7.40±0.05 and water added up to 100 ml. The Asp^B28 Human insulin preparations were introduced into Penfill® cartridges and subjected to stability tests at 25° C. and 37° C. The stability data at the two different temperatures and three different phosphate concentrations and at 19.6 μg Zn/100 U insulin and pH=7.4 are summarized in Tables 4, 5 and 6.

[3] = 13.1 μg Zn/100 U insulin, NaCl 0 mM, pH 7.2
[4] = 13.1 μg Zn/100 U insulin, NaCl 0 mM, pH 7.5
[5] = 13.1 μg Zn/100 U insulin, NaCl 5 mM, pH 7.2
[6] = 13.1 μg Zn/100 U insulin, NaCl 5 mM, pH 7.5
[7] = 13.1 μg Zn/100 U insulin, NaCl 20 mM, pH 7.2
[8] = 13.1 μg Zn/100 U insulin, NaCl 20 mM, pH 7.5
[9] = 16.3 μg Zn/100 U insulin, NaCl 0 mM, pH 7.2
[10] = 16.3 μg Zn/100 U insulin, NaCl 0 mM, pH 7.4
[11] = 16.3 μg Zn/100 U insulin, NaCl 5 mM, pH 7.2
[12] = 16.3 μg Zn/100 U insulin, NaCl 5 mM, pH 7.5
[13] = 16.3 μg Zn/100 U insulin, NaCl 20 mM, pH 7.2
[14] = 16.3 μg Zn/100 U insulin, NaCl 20 mM, pH 7.5
[15] = 19.6 μg Zn/100 U insulin, NaCl 0 mM, pH 7.2
[16] = 19.6 μg Zn/100 U insulin, NaCl 0 mM, pH 7.5
[17] = 19.6 μg Zn/100 U insulin, NaCl 5 mM, pH 7.2
[18] = 19.6 μg Zn/100 U insulin, NaCl 5 mM, pH 7.5
[19] = 19.6 μg Zn/100 U insulin, NaCl 20 mM, pH 7.2
[20] = 19.6 μg Zn/100 U insulin, NaCl 20 mM, pH 7.5
[21] = 22.8 μg Zn/100 U insulin, NaCl 0 mM, pH 7.2
[22] = 22.8 μg Zn/100 U insulin, NaCl 0 mM, pH 7.5
[23] = 22.8 μg Zn/100 U insulin, NaCl 5 mM, pH 7.2
[24] = 22.8 μg Zn/100 U insulin, NaCl 5 mM, pH 7.5
[25] = 22.8 μg Zn/100 U insulin, NaCl 20 mM, pH 7.2
[26] = 22.8 μg Zn/100 U insulin, NaCl 20 mM, pH 7.5
[27] = NaCl added 0 mM, total Cl^- 3.8 mM, phosphate 5 mM
[28] = NaCl added 0 mM, total Cl^- 3.8 mM, phosphate 7 mM
[29] = NaCl added 0 mM, total Cl^- 3.8 mM, phosphate 9 mM
[30] = NaCl added 5 mM, total Cl^- 8.8 mM, phosphate 5 mM
[31] = NaCl added 5 mM, total Cl^- 8.8 mM, phosphate 7 mM

Substance: Asp^B28 human insulin
- Asp^B28 Des-amido insulins formed [1, 3]: 3.44%
- Di- & polymers formed [1, 3]: 1.35%
- Asp^B28 Des-amido insulins formed [1, 4]: 3.57%
- Di- & polymers formed [1, 4]: 1.36%
- Asp^B28 Des-amido insulins formed [1, 5]: 3.48%
- Di- & polymers formed [1, 5]: 1.53%
- Asp^B28 Des-amido insulins formed [1, 6]: 3.31%
- Di- & polymers formed [1, 6]: 1.49%
- Asp^B28 Des-amido insulins formed [1, 7]: 2.54%
- Di- & polymers formed [1, 7]: 1.72%
- Asp^B28 Des-amido insulins formed [1, 8]: 2.47%
- Di- & polymers formed [1, 8]: 1.26%
- Asp^B28 Des-amido insulins formed [1, 9]: 3.35%
- Di- & polymers formed [1, 9]: 1.44%
- Asp^B28 Des-amido insulins formed [1, 10]: 3.41%
- Di- & polymers formed [1, 10]: 1.46%
- Asp^B28 Des-amido insulins formed [1, 11]: 1.74%
- Di- & polymers formed [1, 11]: 0.95%
- Asp^B28 Des-amido insulins formed [1, 12]: 2.58%
- Di- & polymers formed [1, 12]: 1.38%
- Asp^B28 Des-amido insulins formed [1, 13]: 1.91%
- Di- & polymers formed [1, 13]: 1.05%
- Asp^B28 Des-amido insulins formed [1, 14]: 2.00%
- Di- & polymers formed [1, 14]: 1.31%
- Asp^B28 Des-amido insulins formed [1, 15]: 3.07%
- Di- & polymers formed [1, 15]: 1.57%
- Asp^B28 Des-amido insulins formed [1, 16]: 2.85%
- Di- & polymers formed [1, 16]: 1.80%
- Asp^B28 Des-amido insulins formed [1, 17]: 2.71%
- Di- & polymers formed [1, 17]: 1.36%
- Asp^B28 Des-amido insulins formed [1, 18]: 2.24%
- Di- & polymers formed [1, 18]: 1.46%
- Asp^B28 Des-amido insulins formed [1, 19]: 1.56%
- Di- & polymers formed [1, 19]: 1.15%
- Asp^B28 Des-amido insulins formed [1, 20]: 1.68%
- Di- & polymers formed [1, 20]: 1.13%
- Asp^B28 Des-amido insulins formed [1, 21]: 2.71%
- Di- & polymers formed [1, 21]: 2.52%
- Asp^B28 Des-amido insulins formed [1, 22]: 2.34%
- Di- & polymers formed [1, 22]: 1.45%
- Asp^B28 Des-amido insulins formed [1, 23]: 2.18%
- Di- & polymers formed [1, 23]: 1.95%
- Asp^B28 Des-amido insulins formed [1, 24]: 1.90%
- Di- & polymers formed [1, 24]: 1.19%
- Asp^B28 Des-amido insulins formed [1, 25]: 1.51%
- Di- & polymers formed [1, 25]: 1.05%
- Asp^B28 Des-amido insulins formed [1, 26]: 1.46%
- Di- & polymers formed [1, 26]: 1.09%
- Asp^B28 Des-amido insulins formed [2, 27]: 4.7%
- Di- & polymers formed [2, 27]: 1.4%
- Asp^B28 Des-amido insulins formed [2, 28]: 4.3%
- Di- & polymers formed [2, 28]: 1.2%
- Asp^B28 Des-amido insulins formed [2, 29]: 4.9%
- Di- & polymers formed [2, 29]: 1.2%
- Asp^B28 Des-amido insulins formed [2, 30]: 3.7%
- Di- & polymers formed [2, 30]: 1.3%
- Asp^B28 Des-amido insulins formed [2, 31]: 3.6%
- Di- & polymers formed [2, 31]: 1.2%
- Asp^B28 Des-amido insulins formed ([2]; NaCl added 5 mM, total Cl^- 8.8 mM, phosphate 9 mM): 4.0%
